Data: publication PMC5994540

experiment: surface/total immunofluorescence, COS-7, with GluN1-4a; conditions: glycan lost; control: wild-type GluN1/GluN3A

Protein	localisation_or_trafficking
GluN3A subunit: GluN3A-2/4N→Q (protein) parent chain: MRRLSLWWLLSRVCLLLPPPCALVLAGVPSSSSHPQPCQILKRIGHAVRVGAVHLQPWTTAPRAASRAQEGGRAGAQRDDPESGTWRPPAPSQGARWLGSALHGRGPPGSRKLGEGAGAETLWPRDALLFAVENLNRVEGLLPYNLSLEVVMAIEAGLGDLPLMPFSSPSSPWSSDPFSFLQSVCHTVVVQGVSALLAFPQSQGEMMELDLVSSVLHIPVLSIVRHEFPRESQNPLHLQLSLENSLSSDADVTVSILTMNNWYNFSLLLCQEDWNITDFLLLTENNSKFHLESVINITANLSSTKDLLSFLQVQMDNIRNSTPTMVMFGCDMDSIRQIFEMSTQFGLSPPELHWVLGDSQNVEELRTEGLPLGLIAHGKTTQSVFEYYVQDAMELVARAVATATMIQPELALLPSTMNCMDVKTTNLTSGQYLSRFLANTTFRGLSGSIKVKGSTIISSENNFFIWNLQHDPMGKPMWTRLGSWQGGRIVMDSGIWPEQAQRHKTHFQHPNKLHLRVVTLIEHPFVFTREVDDEGLCPAGQLCLDPMTNDSSMLDRLFSSLHSSNDTVPIKFKKCCYGYCIDLLEQLAEDMNFDFDLYIVGDGKYGAWKNGHWTGLVGDLLSGTANMAVTSFSINTARSQVIDFTSPFFSTSLGILVRTRDTAAPIGAFMWPLHWTMWLGIFVALHITAIFLTLYEWKSPFGMTPKGRNRNKVFSFSSALNVCYALLFGRTAAIKPPKCWTGRFLMNLWAIFCMFCLSTYTANLAAVMVGEKIYEELSGIHDPKLHHPSQGFRFGTVRESSAEDYVRQSFPEMHEYMRRYNVPATPDGVQYLKNDPEKLDAFIMDKALLDYEVSIDADCKLLTVGKPFAIEGYGIGLPPNSPLTSNISELISQYKSHGFMDVLHDKWYKVVPCGKRSFAVTETLQMGIKHFSGLFVLLCIGFGLSILTTIGEHIVHRLLLPRIKNKSKLQYWLHTSQRFHRALNTSFVEEKQPRSKTKRVEKSRWRRWTCKTEGDSELSLFPRSNLGPQQLMVWNTSNLSHDNQRKYIFNDEEGQNQLGTQAHQDIPLPQRRRELPASLTTNGKADSLNVTRSSVIQELSELEKQIQVIRQELQLAVSRKTELEEYQKTNRTCES	no change
GluN3A subunit: N264Q (protein) parent chain: MRRLSLWWLLSRVCLLLPPPCALVLAGVPSSSSHPQPCQILKRIGHAVRVGAVHLQPWTTAPRAASRAQEGGRAGAQRDDPESGTWRPPAPSQGARWLGSALHGRGPPGSRKLGEGAGAETLWPRDALLFAVENLNRVEGLLPYNLSLEVVMAIEAGLGDLPLMPFSSPSSPWSSDPFSFLQSVCHTVVVQGVSALLAFPQSQGEMMELDLVSSVLHIPVLSIVRHEFPRESQNPLHLQLSLENSLSSDADVTVSILTMNNWYNFSLLLCQEDWNITDFLLLTENNSKFHLESVINITANLSSTKDLLSFLQVQMDNIRNSTPTMVMFGCDMDSIRQIFEMSTQFGLSPPELHWVLGDSQNVEELRTEGLPLGLIAHGKTTQSVFEYYVQDAMELVARAVATATMIQPELALLPSTMNCMDVKTTNLTSGQYLSRFLANTTFRGLSGSIKVKGSTIISSENNFFIWNLQHDPMGKPMWTRLGSWQGGRIVMDSGIWPEQAQRHKTHFQHPNKLHLRVVTLIEHPFVFTREVDDEGLCPAGQLCLDPMTNDSSMLDRLFSSLHSSNDTVPIKFKKCCYGYCIDLLEQLAEDMNFDFDLYIVGDGKYGAWKNGHWTGLVGDLLSGTANMAVTSFSINTARSQVIDFTSPFFSTSLGILVRTRDTAAPIGAFMWPLHWTMWLGIFVALHITAIFLTLYEWKSPFGMTPKGRNRNKVFSFSSALNVCYALLFGRTAAIKPPKCWTGRFLMNLWAIFCMFCLSTYTANLAAVMVGEKIYEELSGIHDPKLHHPSQGFRFGTVRESSAEDYVRQSFPEMHEYMRRYNVPATPDGVQYLKNDPEKLDAFIMDKALLDYEVSIDADCKLLTVGKPFAIEGYGIGLPPNSPLTSNISELISQYKSHGFMDVLHDKWYKVVPCGKRSFAVTETLQMGIKHFSGLFVLLCIGFGLSILTTIGEHIVHRLLLPRIKNKSKLQYWLHTSQRFHRALNTSFVEEKQPRSKTKRVEKSRWRRWTCKTEGDSELSLFPRSNLGPQQLMVWNTSNLSHDNQRKYIFNDEEGQNQLGTQAHQDIPLPQRRRELPASLTTNGKADSLNVTRSSVIQELSELEKQIQVIRQELQLAVSRKTELEEYQKTNRTCES	no change
GluN3A subunit: GluN3A-3/4N→Q (protein) parent chain: MRRLSLWWLLSRVCLLLPPPCALVLAGVPSSSSHPQPCQILKRIGHAVRVGAVHLQPWTTAPRAASRAQEGGRAGAQRDDPESGTWRPPAPSQGARWLGSALHGRGPPGSRKLGEGAGAETLWPRDALLFAVENLNRVEGLLPYNLSLEVVMAIEAGLGDLPLMPFSSPSSPWSSDPFSFLQSVCHTVVVQGVSALLAFPQSQGEMMELDLVSSVLHIPVLSIVRHEFPRESQNPLHLQLSLENSLSSDADVTVSILTMNNWYNFSLLLCQEDWNITDFLLLTENNSKFHLESVINITANLSSTKDLLSFLQVQMDNIRNSTPTMVMFGCDMDSIRQIFEMSTQFGLSPPELHWVLGDSQNVEELRTEGLPLGLIAHGKTTQSVFEYYVQDAMELVARAVATATMIQPELALLPSTMNCMDVKTTNLTSGQYLSRFLANTTFRGLSGSIKVKGSTIISSENNFFIWNLQHDPMGKPMWTRLGSWQGGRIVMDSGIWPEQAQRHKTHFQHPNKLHLRVVTLIEHPFVFTREVDDEGLCPAGQLCLDPMTNDSSMLDRLFSSLHSSNDTVPIKFKKCCYGYCIDLLEQLAEDMNFDFDLYIVGDGKYGAWKNGHWTGLVGDLLSGTANMAVTSFSINTARSQVIDFTSPFFSTSLGILVRTRDTAAPIGAFMWPLHWTMWLGIFVALHITAIFLTLYEWKSPFGMTPKGRNRNKVFSFSSALNVCYALLFGRTAAIKPPKCWTGRFLMNLWAIFCMFCLSTYTANLAAVMVGEKIYEELSGIHDPKLHHPSQGFRFGTVRESSAEDYVRQSFPEMHEYMRRYNVPATPDGVQYLKNDPEKLDAFIMDKALLDYEVSIDADCKLLTVGKPFAIEGYGIGLPPNSPLTSNISELISQYKSHGFMDVLHDKWYKVVPCGKRSFAVTETLQMGIKHFSGLFVLLCIGFGLSILTTIGEHIVHRLLLPRIKNKSKLQYWLHTSQRFHRALNTSFVEEKQPRSKTKRVEKSRWRRWTCKTEGDSELSLFPRSNLGPQQLMVWNTSNLSHDNQRKYIFNDEEGQNQLGTQAHQDIPLPQRRRELPASLTTNGKADSLNVTRSSVIQELSELEKQIQVIRQELQLAVSRKTELEEYQKTNRTCES	no change
GluN3A subunit: N145Q (protein) parent chain: MRRLSLWWLLSRVCLLLPPPCALVLAGVPSSSSHPQPCQILKRIGHAVRVGAVHLQPWTTAPRAASRAQEGGRAGAQRDDPESGTWRPPAPSQGARWLGSALHGRGPPGSRKLGEGAGAETLWPRDALLFAVENLNRVEGLLPYNLSLEVVMAIEAGLGDLPLMPFSSPSSPWSSDPFSFLQSVCHTVVVQGVSALLAFPQSQGEMMELDLVSSVLHIPVLSIVRHEFPRESQNPLHLQLSLENSLSSDADVTVSILTMNNWYNFSLLLCQEDWNITDFLLLTENNSKFHLESVINITANLSSTKDLLSFLQVQMDNIRNSTPTMVMFGCDMDSIRQIFEMSTQFGLSPPELHWVLGDSQNVEELRTEGLPLGLIAHGKTTQSVFEYYVQDAMELVARAVATATMIQPELALLPSTMNCMDVKTTNLTSGQYLSRFLANTTFRGLSGSIKVKGSTIISSENNFFIWNLQHDPMGKPMWTRLGSWQGGRIVMDSGIWPEQAQRHKTHFQHPNKLHLRVVTLIEHPFVFTREVDDEGLCPAGQLCLDPMTNDSSMLDRLFSSLHSSNDTVPIKFKKCCYGYCIDLLEQLAEDMNFDFDLYIVGDGKYGAWKNGHWTGLVGDLLSGTANMAVTSFSINTARSQVIDFTSPFFSTSLGILVRTRDTAAPIGAFMWPLHWTMWLGIFVALHITAIFLTLYEWKSPFGMTPKGRNRNKVFSFSSALNVCYALLFGRTAAIKPPKCWTGRFLMNLWAIFCMFCLSTYTANLAAVMVGEKIYEELSGIHDPKLHHPSQGFRFGTVRESSAEDYVRQSFPEMHEYMRRYNVPATPDGVQYLKNDPEKLDAFIMDKALLDYEVSIDADCKLLTVGKPFAIEGYGIGLPPNSPLTSNISELISQYKSHGFMDVLHDKWYKVVPCGKRSFAVTETLQMGIKHFSGLFVLLCIGFGLSILTTIGEHIVHRLLLPRIKNKSKLQYWLHTSQRFHRALNTSFVEEKQPRSKTKRVEKSRWRRWTCKTEGDSELSLFPRSNLGPQQLMVWNTSNLSHDNQRKYIFNDEEGQNQLGTQAHQDIPLPQRRRELPASLTTNGKADSLNVTRSSVIQELSELEKQIQVIRQELQLAVSRKTELEEYQKTNRTCES	no change
GluN3A subunit: GluN3A-4/4N→Q (protein) parent chain: MRRLSLWWLLSRVCLLLPPPCALVLAGVPSSSSHPQPCQILKRIGHAVRVGAVHLQPWTTAPRAASRAQEGGRAGAQRDDPESGTWRPPAPSQGARWLGSALHGRGPPGSRKLGEGAGAETLWPRDALLFAVENLNRVEGLLPYNLSLEVVMAIEAGLGDLPLMPFSSPSSPWSSDPFSFLQSVCHTVVVQGVSALLAFPQSQGEMMELDLVSSVLHIPVLSIVRHEFPRESQNPLHLQLSLENSLSSDADVTVSILTMNNWYNFSLLLCQEDWNITDFLLLTENNSKFHLESVINITANLSSTKDLLSFLQVQMDNIRNSTPTMVMFGCDMDSIRQIFEMSTQFGLSPPELHWVLGDSQNVEELRTEGLPLGLIAHGKTTQSVFEYYVQDAMELVARAVATATMIQPELALLPSTMNCMDVKTTNLTSGQYLSRFLANTTFRGLSGSIKVKGSTIISSENNFFIWNLQHDPMGKPMWTRLGSWQGGRIVMDSGIWPEQAQRHKTHFQHPNKLHLRVVTLIEHPFVFTREVDDEGLCPAGQLCLDPMTNDSSMLDRLFSSLHSSNDTVPIKFKKCCYGYCIDLLEQLAEDMNFDFDLYIVGDGKYGAWKNGHWTGLVGDLLSGTANMAVTSFSINTARSQVIDFTSPFFSTSLGILVRTRDTAAPIGAFMWPLHWTMWLGIFVALHITAIFLTLYEWKSPFGMTPKGRNRNKVFSFSSALNVCYALLFGRTAAIKPPKCWTGRFLMNLWAIFCMFCLSTYTANLAAVMVGEKIYEELSGIHDPKLHHPSQGFRFGTVRESSAEDYVRQSFPEMHEYMRRYNVPATPDGVQYLKNDPEKLDAFIMDKALLDYEVSIDADCKLLTVGKPFAIEGYGIGLPPNSPLTSNISELISQYKSHGFMDVLHDKWYKVVPCGKRSFAVTETLQMGIKHFSGLFVLLCIGFGLSILTTIGEHIVHRLLLPRIKNKSKLQYWLHTSQRFHRALNTSFVEEKQPRSKTKRVEKSRWRRWTCKTEGDSELSLFPRSNLGPQQLMVWNTSNLSHDNQRKYIFNDEEGQNQLGTQAHQDIPLPQRRRELPASLTTNGKADSLNVTRSSVIQELSELEKQIQVIRQELQLAVSRKTELEEYQKTNRTCES	no change
